# Where two headings read alike, the source gives them in different places.
# Columns and labels:
# [1] = molecular target: T1, TDP-43 (Homo sapiens, UniProt Q13148); experiment: Cleavage of TDP-43 protein in brain homogenate of ALS model (SOD1-G93A) mice (Western blot); format: biochemical; conditions: SOD1-G93A mouse brain homogenate + recombinant TDP-43, 37° C. 3 h, vs vehicle control group
# T1 construct: purchased Nanjing GenScript Biotechnology Co., Ltd. C134WHE160-2/P5HF001
# Method: Four B6.Cg-Tg (SOD1-G93A) 1Gur/J transgenic male mice (referred to as SOD1-G93A transgenic mice) were sacrificed, and the whole brain was taken out to weigh. 1×PBS was added at 150 mg tissue/mL PBS (Thermo Fisher, pH 7.4; 10010-031) to homogenize at 4° C. (1 min, 3-4 times). After homogenization, the supernatant, i.e., the brain homogenate was taken out to place in a new EP tube.
# Eppendorf (EP) tubes were set as: (1) blank group, (2) blank control group, (3) vehicle control group, and (4) plasminogen group, with 5 parallels in each group. The blank group was added with 21.5 μL of normal saline, 4.6 μL of vehicle solution (10 mM sodium citrate, 2% arginine hydrochloride, 3% mannitol, pH 7.4), and 23.9 μL of mouse brain homogenate; the blank control group was added with 21.5 μL of normal saline, 2.3 μL of plasminogen solution (2 mg/mL), and 23.9 μL of mouse brain homogenate; the vehicle control group was added with 20.5 μL of TDP-43 (Nanjing GenScript Biotechnology Co., Ltd., custom-expressed human TDP-43, C134WHE160-2/P5HF001, 1.05 mg/mL), 4.6 μL of vehicle solution, and 23.9 μL of mouse brain homogenate; the plasminogen group was added with 20.5 μL of TDP-43 (1.05 mg/mL), 2.3 μL of plasminogen solution (2 mg/mL), and 23.9 μL of mouse brain homogenate. After adding the samples of each group, they were incubated at 37° C. for 3 h, and then 50 μL of 0.1% trifluoroacetic acid solution was added to terminate the reaction.
# A 12% gel was prepared according to the SDS-PAGE gel preparation instructions. Each group of samples was mixed with 4× loading buffer (TaKaRa, e2139) at a volume ratio of 3:1, heating at 100° C. for 5 min, cooling and centrifuging for 2 min, and then 20 μL was taken for sample loading. […] After washing 4 times with TBST, the PVDF membrane was placed on a clean imaging plate, Immobilon Western HRP Substrate (MILLIPORE, WBKLS0100) was added for color development, and the membrane was photographed under a biomolecular imager, then performing quantitative analysis by using Image J.
# [2] = Blood plasminogen level in MPTP Parkinson's model mice (ELISA); format: in vivo, mouse; conditions: 50 mg/kg tail vein
# [3] = Parkinson's model mice, 50 mg/kg tail vein
# Method: Eighteen 6-week-age male C57BL/6J mice were injected intraperitoneally with 1-methyl-4-phenyl-1,2,3,6-tetrahydropyridine (MPTP) solution at a dose of 35 mg/kg/mouse for 5 consecutive days to establish a Parkinson's model. Preparation of MPTP solution: 45 mg of MPTP (Sigma, M0896) was dissolved in 9 ml of physiological saline solution to prepare a final concentration of 5 mg/ml. The mice were randomly divided into two groups according to their body weight: 6 mice in vehicle group, 12 mice in plasminogen group; and administration was begun to record as day 1. The mice in the plasminogen group were injected with 50 mg/kg body weight of plasminogen solution by tail vein, and the mice in the vehicle group were injected with 5 mL/kg body weight of vehicle solution (10 mM citric acid-sodium citrate solution, pH 7.4) by tail vein.
# T1 sequence (Q13148 whole entry): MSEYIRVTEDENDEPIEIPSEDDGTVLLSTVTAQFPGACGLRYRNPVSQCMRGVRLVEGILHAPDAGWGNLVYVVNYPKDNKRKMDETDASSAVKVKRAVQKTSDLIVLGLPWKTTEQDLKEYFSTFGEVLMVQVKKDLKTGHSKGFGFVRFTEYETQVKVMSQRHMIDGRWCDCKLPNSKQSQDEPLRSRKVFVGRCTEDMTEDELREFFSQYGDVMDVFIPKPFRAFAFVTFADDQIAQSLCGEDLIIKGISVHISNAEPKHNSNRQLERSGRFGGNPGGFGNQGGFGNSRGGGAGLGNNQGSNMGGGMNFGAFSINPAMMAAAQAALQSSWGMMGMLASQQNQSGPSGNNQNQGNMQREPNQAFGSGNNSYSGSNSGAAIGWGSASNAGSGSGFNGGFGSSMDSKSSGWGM
molecule,measurement,setting,value
"plasminogen: human plasminogen purified from human donor plasma, in which human Lys-plasminogen and Glu-plasminogen are >98% (protein) KVYLSECKTGNGKNYRGTMSKTKNGITCQKWSSTSPHRPRFSPATHPSEGLEENYCRNPDNDPQGPWCYTTDPEKRYDYCDILECEEECMHCSGENYDGKISKTMSGLECQAWDSQSPHAHGYIPSKFPNKNLKKNYCRNPDRELRPWCFTTDPNKRWELCDIPRCTTPPPSSGPTYQCLKGTGENYRGNVAVTVSGHTCQHWSAQTPHTHNRTPENFPCKNLDENYCRNPDGKRAPWCHTTNSQVRWEYCKIPSCDSSPVSTEQLAPTAPPELTPVVQDCYHGDGQSYRGTSSTTTTGKKCQSWSSMTPHRHQKTPENYPNAGLTMNYCRNPDADKGPWCFTTDPSVRWEYCNLKKCSGTEASVVAPPPVVLLPDVETPSEEDCMFGNGKGYRGKRATTVTGTPCQDWAAQEPHRHSIFTPETNPRAGLEKNYCRNPDGDVGGPWCYTTNPRKLYDYCDVPQCAAPSFDCGKPQVEPKKCPGRVVGGCVAHPHSWPWQVSLRTRFGMHFCGGTLISPEWVLTAAHCLEKSPRPSSYKVILGAHQEVNLEPHVQEIEVSRLFLEPTRKDIALLKLSSPAVITDKVIPACLPSPNYVVADRTECFITGWGETQGTFGAGLLKEAQLPVIENKVCNRYEFLNGRVQSTELCAGHLAGGTDSCQGDSGGPLVCFEKDKYILQGVTSWGLGCARPNKPGVYVRVSRFVTWIEGVMRNN",amount of TDP-43 monomer,[1],significantly lower
same,amount of high molecular weight TDP-43 protein (HMW),[1],significantly lower
same,amount of low molecular weight TDP-43 fragment (LMW),[1],significantly lower
same,time within which plasminogen is almost completely metabolized (blood),[2],12 to 24 h
same,plasminogen level in the blood,[2]; vs vehicle group,significantly higher
same,ratio of brain tissue plasminogen level to blood plasminogen level,[3]; 2 hours,3.47%
same,ratio of spinal cord tissue plasminogen level to blood plasminogen level,[3]; 2 hours,1.24%
same,ratio of brain tissue plasminogen level to blood plasminogen level,[3]; 6 hours,4.18%
same,ratio of spinal cord tissue plasminogen level to blood plasminogen level,[3]; 6 hours,1.16%
same,ratio of brain tissue plasminogen level to blood plasminogen level,[3]; 12 hours,8.51%
same,ratio of spinal cord tissue plasminogen level to blood plasminogen level,[3]; 12 hours,1.46%

# — US20260166131A1, “METHOD FOR PROMOTING PATHOLOGICAL TDP-43 PROTEIN DEGRADATION, AND DRUG” (TALENGEN INTERNATIONAL LIMITED, priority 2022, published 2026)
